Experimental data: the DeepSol protein solubility set

Assay: soluble on expression in E. coli; label from the status in PepcDB or PDB records

Row | Sequence | soluble on expression in E. coli
1 | MGSDKIHHHHHHMNQSLRPDKAALVELFRDFIEPQYVINDEETQKPFECDGLSVYCDMPLITVLPKTVEQVCEVMRICYRYQIPVVARGAGTGLCAGAMPNPDGVLLVLSRFKHILDIDPLARSARLQPGVRNLAISEAASPYGLYYGPDPSSQIACSIGGNVAENSGGVHCLKYGLTTHNLLKIEMVTVEGELITIGSEGLDSNGFDLMALITGSEGLLGVITEVTVKLLPSPEKAQVIMAGFDNVQTAGDAVGGVIAKGIIPAGLEMMDSPAIIAAEAFAHAGYPTDAQALLLCELDGSEAEVQEQIAEVEQLFIELGATTTRVSQSEAERALLWKGRKSAFPAVGRISPDYYCMDGTIPRSQLAHVLTEMQKLSEQYGLRVANVFHAGDGNLHPLILFDANVPGELERTEEFGSRILELCVKVGGCITGEHGVGVEKIRQMTIQFNDQELTQFHAIKHAFDPIGTLNPGKGIPVLKRCQEYRTLDRPQHKHDSQPQQGDLA | not soluble
2 | MSVEASRTCFLIDSLLNKKPKEELETEEEDEEEDEEEELSSSEVTSENDMETESASSSASSVGQPKPDFSAFHKIFSNLDFAKLAAVKRNGHHQPMLFRPECFFPLELSKHLHLVQQTFQMNVLQNLGHTLPLPFVPMLKNVAPAQKRLNNKRASYVDHSQKGNLKKYRCDVCDKTFSRSNTLITHKRIHTGEKPFKCEHCGRAFRQPGNLTRHRLTHTTVKPYVCGLCDKAFNRASNLHTHMRTHTNV | not soluble
3 | GALPDPVKPKAPKAVNPFHLGMAGYTFVNFDLDTTLKTLERLDIHYLCIKDFHLPLNSTDEQIRAFHDKCAAHKVTGYAVGPIYMKSEEEIDRAFDYAKRVGVKLIVGVPNYELLPYVDKKVKEYDFHYAIHLHGPDIKTYPDATDVWVHTKDLDPRIGMCLDVGHDLRNGCDPVADLKKYHTRVFDMHIKDVTDSSKAGVGIEIGRGKIDFPALIRMMREVNYTGMCSLEYEKDMKDPFLGIAESIGYFKAVSDLT | soluble
4 | MSLAEVAEVSEQDFGEILAQTRQFVRTAVVPREQEILDGDRVPDDLRDQARKMGLFGYAIPQQWGGLGLNLMQDVELAMELGYTSLALRSMFGTNNGIAGQVLVGFGTEAQKARWLEPMAAGDVVASFALTEPGAGSNPAGLRTKAVADGDNWVISGQKRFITNAPVADLFVVFARTRPADDQGPGIAVFLVPADAAGVQVGAKDAKMGQEGAWTADVSFDDVRVGGDALIGGSENIGYRAAMTSLARGRVHIAALAVGAAQRALDESVSYAATATQGGTPIGNFQLVQAMLADQQTEVLAGRALVREAARLWVTGEDRRVAPSAAKLYCTEMAGRVADLAVQVHGGSGYMRGVPVERIYRDVRLLRLYEGTSEIQRLIIGSNLVKAAQREGHHHHHH | soluble
5 | MDYEIENNHADSIRRGSIEVICGSMFSGKTEELLRRLRRAKIARQTVEIFKPTIDIRYDETDVVSHDKNAIASTPVDNSANILLLSSQVDVVGIDEAQFFDEGLVEVAQQLADQGVRVVIAGLDMDFRRQPFGPMPGLCAIADSVTKVHAVCVECGRLASYSFRRVQGDQQVMLGELNEYSPLCRTCYRKCSSPPQTEEIHSTILEHHHHHH | soluble
6 | AQVPASGKLLVDPRYSTNDQEESILQDIITRFPNVVLMKQTAQLRAMMTIIRDKETPKEEFVFYADRLIRLLIEEALNELPFQKKEVTTPLDVSYHGVSFYSKICGVSIVRAGESMESGLRAVCRGVRIGKILIQRDETTAEPKLIYEKLPADIRERWVMLLDPMCATAGSVCKAIEVLLRLGVKEERIIFVNILAAPQGIERVFKEYPKVRMVTAAVDICLNSRYYIVPGIGDFGDRYFGTM | soluble
7 | MINHIEEPSSMDAHAVSFRVEKDDLSGAVSWVARNLPTKPTQPVLRAVVITADDEGLEFAGFDYEVSTKVHINADVRQPGRIAVAGKLMSDIIGTLPNKTIEVFVEGTQVQVVCGSSRFELPLIPLDEYPPLPQLPAVTGAIDPNLFTDAVLQVAAAAGRDETLPMLTGIHMEIDGENVTLTATDRFRLALRRFTWSPANPEAKAKLLIPAKNLSDNARSLDSGSTEPVEIAVGTGENIGAEGLFGIHIDNRQTTTRMLDADFPNVSPLLPKVHNAMASVEISALSDAIRRVALVAERNAQIRMQFTRDEVILSAGGSDAGHAEESVPCAFTGDQEFLIAFNSAYLRDGLSVIRTSRVVFGFTEPSRPAIMIPEPETLPEASADGTYPTPDTEFTYLLMPVRLPG | soluble
8 | MSSGDMTSEYKDKQGGGAGQPLTKSENNDGKKTLTNGMSRVHRVLTEDEIASGRSTRWTELEIHGRVKNLSPSLWQLTHLSALFLNNNGLTRLPPEIAQLTNLTMLDISNNKLRSLPTELGDMISLCHLYLNNNQLRVLPYELGKLFRIQTLGLQGNPLSPEISKIYHETNGAQKILQFLLDHLTINTHPPPERNWVMIRHADPERPIATFTVLCYNVLCDKYATVNQYSYCPSWALNWEYRKGLIIKEIRTYEADVITLQEVETEQFRTLFQPELKQLGYAGIFEAKSRAKTMGEEERKYVDGCAIFWKVDKFDMDKQYLFEFSSVAMKKASTSENMLNRVMPRDNIGLCAVLKIKESVYANKFLGRMQIPMNDNVVGNPLVVATAHIHWDPEFCDVKLVQSMMLTHEVSRVLEEVSKKYQITQQQVPVLICGDFNSLPDSGVFEYLSKGQITRRHMDLKSFRDDSCLEKFTNSTDKNVISHPLRLDSACDINSIPFTNYTLDFKGMIDYIFATPQSLARLGILGPFDPQWVQSNKILGFPHPHVASDHIPIMAQYAIIPTTHQRQQPLQQAGPAAGVIGGGFPSTPSGAQPFLRC | not soluble
9 | MGSDKIHHHHHHMSDKLSQEQIDALLSQMSEGKVVDESTEIGDFGRFHPYDFHKPEKFGAEHLESLKTIASAFTKKSMEFVSQRIRIPIHTEATLADQVSFASGYIETMPNDSYIFCIIDLGNPELGQIIIELDLAYIIYIHECLSGGNPKRKLSERRLLSVFEELTLKSILEKFCEALKDSFKSVHPISPEIVNIETNPALLRVTSPNDMMALVSVDIKSEFWISTMRIGVPFFSVEEIMNKLENVVEYTFDKRRNFDAEVEQELHQVEKEARIRVGEIKTTWKELNMLEVGDVLLTETHIRDTLKGYVTEKWKFECYMGKSGNQKAVKFMRHTGRTEQER | not soluble
10 | MSLQTQLVHELVENQPTKLLIYVKNIRTIRTKKGEQMAFVDGDDTTGSISLTLFPTVFRQLRQSVEKGQVYYVEGKVERSTYNQELQILVQRIEKAQQVETSISDETCFIRITKDVEQTDVFQKMKEVLSRHAGHIPVIVYFEKTGKKIVLNEENWVAHTSASQQQLAYVLGEQNVIFKEGHHHHHH | soluble
11 | MQYLEKKEIKEIQLALLDYIDETCKKHDIPYFLSYGTMLGAIRHKGMIPWDDDIDISLYREDYERLLKIIEEENHPRYKVLSYDTSSWYFHNFASILDTSTVIEDHVKYKRHDTSLFIDVFPIDRFTDLSIVDKSYKYVALRQLAYIKKSRAVHGDSKLKDFLRLCSWYALRFVNPRYFYKKIDQLVKNAVTNTPQYEGGVGIGKEGMKEIFPVDTFKELILTEFEGRMLPVPKKYDQFLTQMYGDYMTPPSKEMQEWYSHSIKAYRKNLEHHHHHH | soluble
12 | GMSWEKSGKEGSLLRWYDVMEAERYEYTVGPAGEQFFNGLKQNKIIGSKCSKCGRIFVPARSYCEHCFVKIENYVEINKDEAYVDSYTIIYNDDEGNKLAQPVYIALIRFPNIEGGLLCYAEGNVKVGAKAKILSFQWPLRVKVD | soluble
13 | MHATSRVAWFWRPSCQSFIRKMPCRPIVLSGPSGGGKSTILTRAMQEYPNSFAFSVSHTTRQPRAGEEHGKHYYFTEKEKMQEMIKNNEFLEFATFSGNTYGTSKKTVLEIENSGKICVLDIELQGVRNIKNSHLDARYILIRAPSIKLLEERLRARGTETEESLSKRLQHASEDLVEIEKNPTLFDKVIVNDDLERAYKEFVDLLRDDLEKTSKK | not soluble
14 | GSHMQAEILLTLKLQQKLFADPRRISLLKHIALSGSISQGAKDAGISYKSAWDAINEMNQLSEHILVERATGGKGGGGAVLTRYGQRLIQLYDLLAQIQQKAFDVLSDDDALPLNSLLAAISRFSLQTSARNQWFGTITARDHDDVQQHVDVLLADGKTRLKVAITAQSGARLGLDEGKEVLILLKAPWVGITQDEAVAQNADNQLPGIISHIERGAEQCEVLMALPDGQTLCATVPVNEATSLQQGQNVTAYFNADSVIIATLC | soluble
15 | NSLSTDMSVNRDNRTITSSIMRVSNSSELIQFKNKTAPYFSEKRNVEVNINGVAKDIYGRQIVCRHLASYWEMNFMETNGKVNYQLLSTPDAIAKNVCLEKTEDFSKSPAYIYFVENKKWGTVITNFFYNMKKNGDFVRTLSACTLNHQMALGLKIKRVQESEKWVVQFFDPNRTVTHKRTVFTCDSHFELSQLSAKDFFDDFYWKIYGLEQPGQVIFEDRHNSPLTNTVKLLPDELINSRVIYHAITKNLTEVLFILMEKYKNGEISQSKLVNLLATRSSDGTPAFYIALQNGYSDIIQVYGKILNMCNLSQETILTLLAAVGANNVPGLCMSFMNGHVDTIKAYGEIVFKTPLTSDKRLYLLAAKDSHDLPGLFFALQNGHADSIRMFGSLLNKKMLSSEQIKELLKVKHGLFMALQNGHTKAIMAYGDILKILPPHQEYIDELLWIKNPNGTSGLFMAFYNGHTETIRAFCNILKNYSFTTRRLVEMLSATNKDGIPGVFVSVVNRDKETILEYCRIIKENNLEPDTIAEQFSKKMKKTFIEIINRFNHFL | soluble
16 | PPRKKVATGRRDITKKSEGKPHPTQTYEHELLATQLSNKKMMPFKSQIRARSFDEYKDWVCHDGEEFLLILSGEVMFYSEFYEPVVLSEGDSVYYDANMGHMLTSVSEEDAQILWVTAK | not soluble
17 | MAKPFTPEQREELKTRIVELVHQDGRVTIRQLSDETGISRASVGRLCIELVASGDVYNSGYGLFPSEQARKDWQSARKKLSRVKVRKPVVVDPDLIWSLPDGEIRRYDRRLNIICRECRKSEAMQRVLAFYQGNFQEAIL | not soluble
18 | MSLSETLLEKNWKFSKGDFPEAAQTDYNDTKWESVVIPHDWAIFGPFDMNNDLQNVAVTQNFEKKASLKTGRTGGLPYVGTGWYRTSFDVPADKEVTLLFDGAMSEARVYVNGQEACFWPFGYNSFHCNVTPFLNKDGKNNTLAVRLENRPQSSRWYPGAGLYRNVHLIVTEKVHIPVWGTQITTPHVSDEFAAVRLQTKIENAGEKTEIRIETEILSPDGKVVTRKENKGRINHGQPFEQNFIVNAPQLWSPESPALYKAVSKVYADNQLVDTYSTRFGIRSIEYIADKGFYLNGKHRKFQGVCNHHDLGPLGAAINVAALRHQLTLLKDMGCDAIRTSHNMPAPELVELCDEMGFMMMIEPFDEWDIAKCENGYHRYFNEWAERDMVNMLHNYRNNPCVVMWSIGNEVPTQCSPVGYKVAKFLQDICHREDPTRPVTCGMDQVTCVLANGFAAMIDIPGLNYRANRYQEAYDKLPQNLILGSETASTVSSRGVYKFPVKDKKSAQYDDHQCSSYDVEACSWSNIPDEDFALADDHHWTIGQFVWTGFDYLGEPSPYDTDAWPNHSSMFGIIDLASLPKDRYYLYRSIWNKEAETLHILPHWTWPGREGEVTPVFVYTNYPAAELFINGKSYGKQSKNNSSLKSRYRLMWMDAIYEPGEVKVVAYDKDGKAVAEKSVRTASKPHHIELVSNRNELTADGKDLAYVTVKVVDKDGNLCPADSRLINFSVKGAGKYRAGANGDPTSLDLFHLPKMHAFNGMLTAIVQTNETAGEIILTAKAGGVKAGSIRLLTKEGHHHHHH | soluble
19 | MAHHHHHHMSDEDHDFAHQGGGDNASKTYPMAAGALKKGGYVCINGRPCKVIDLSVSKTGKHGHAKVSIVATDIFTGNRLEDQAPSTHNVEVPFVKTFTYSVLDIQPNEDPSLPSHLSLMDDEGESREDLDMPPDAALATQIKEQFDSGKEVLVVVVSAMGTEQVLQTKNAAEK | soluble
20 | AIASDEPKLSERSLHKFENVRIIIKDENKTCFQGELNIGEDWFCLLSEIDPSNSLRVNAKDLLLHAICQRDEHCEKPSIYCQVQGESDEDQYETIYIVPEESSQVEKIFETFCDLVRRTPVPLTDEEGSDGEWYGNVPWSVGNCDSEQFEDAEETDTQL | soluble
